Test results taken from US20190100518A1 (priority 2016, published 2019).

Columns and labels:
[1] = target: T1, lysozyme (Gallus gallus, UniProt P00698); experiment: circular dichroism (CD) spectrum, higher-order structure of lysozyme; type: physicochemical; conditions: 25° C.
T1 construct: purchased Sigma-Aldrich L-4919
Experimental: A keto-ABNO-lysozyme conjugate prepared by the same method as in Example 6 was dissolved in water, and the concentration was adjusted to 20 μM to provide an aqueous solution for a test group. On the other hand, lysozyme alone was dissolved in water, and the concentration was adjusted to 20 μM to provide an aqueous solution for a control group.
Using a circular dichroism (CD) dispersion meter Model 202SF (manufactured by AVIV Biomedical, Inc.), the CD spectrum of the aqueous solution in each of the test group and the control group was measured under the following conditions to perform analysis of the higher-order structure of the lysozyme in each aqueous solution.
On the other hand, control group A was prepared in the same manner as in the method described in Example 6 except that the same amount of water was added instead of the aqueous NaNO2 solution. As control group B, lysozyme alone (20 μM) was used. As control group C, a phenylmaleimide-lysozyme conjugate prepared by the method described in Example 15 was used.
Using a circular dichroism (CD) dispersion meter Model 202SF (manufactured by AVIV Biomedical, Inc.), the CD spectrum was measured for each of the test group and the control groups under the following conditions.

[2] = type: physicochemical
[3] = Example 16: 200 to 250 nm, compared with control groups A and B, FIG. 7

T1 sequence (P00698 19-147): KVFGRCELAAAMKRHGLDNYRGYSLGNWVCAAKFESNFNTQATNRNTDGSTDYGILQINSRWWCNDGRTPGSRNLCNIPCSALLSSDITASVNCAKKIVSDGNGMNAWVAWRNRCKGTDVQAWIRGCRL

Row | Molecule | higher-order structure of lysozyme (waveform of the CD spectrum) [1, 3] | solubility in water [2] | higher-order structure of lysozyme (waveform of the CD spectrum) ([1]; Example 14: 20 μM in water, 200 to 250 nm, compared with lysozyme alone, FIG. 5)
1 | phenylmaleimide-lysozyme conjugate: lysozyme bound to phenylmaleimide through a cysteine residue, cysteine modification method comparison [reference compound] | has changed | – | –
2 | [O]N1C2CCCC1CC(=O)C2 [keto-ABNO, keto-azabicyclo[3.3.1]nonane N-oxyl] | – | dissolve in water | –
3 | keto-ABNO-lysozyme conjugate: lysozyme bound to keto-ABNO at a tryptophan residue, prepared in water with NaNO2 and AcOH | maintained | – | not influenced
